Assay results published in patent publication US20240376205A1 (Hoffmann-La Roche, published 2024).

B1: Dutaflip Fab fragment of P1AH1111 (DutaFab E06P07) (Fab, V domains shown)
VH: ARQLVESGGGLVQPGGSLRLSCAASGFHFEEQAMSWVRQAPGKGLEWVGSISPKGGSKSLNRNFNGRFTISRDNSKNTLYLQMNSLRAEDTAVYYCAKDIGFMDGWGQGTLVTVSS
VL: YQMTQSPSSLSASVGDRVTITCHGHVFISNYLAWYQQKPGKAPKLLIYDGEWRDFGVPSRFSGSGSDDSFTLTISSLQPEDFATYYCQQYSNWPHTFGQGTKVEIK
notes: Fab fragment without IFN-α2 fusion, expressed in E. coli
B2: Dutaflip Fab fragment of P1AH1108 (Fab, V domains shown)
VH: MSQLVESGGGLVQPGGSLRLSCAANNDIEFNAMSWVRQAPGKGLEWVGSISPKGGSKSIHRKFQGRFTISRDNSKNTLYLQMNSLRAEDTAVYYCARDLGFMDIWGQGTLVTVSS
VL: KTQMTQSPSSLSASVGDRVTITCDGTYGISNELAWYQQKPGKAPKLLIYDGEYHDFDVPSRFSGSGSGSDFTLTISSLQPEDFATYYCQQYGNWPHTFGQGTKVEIK
notes: Dutaflip Fab fragment without IFN-α2 fusion, expressed in E. coli
B3: anti-huPD-L1 M14 Fab (P1AI3438) (Fab, V domains shown)
VH: MTQLVESGGGLVQPGGSLRLSCAADHTTEYNAMSWVRQAPGKGLEWVSAISGSGGSTYYADSVKGRFTISRDNSKNTLYLQMNSLRAEDTAVYYCARDLGFMDVWGQGTLVTVSS
VL: DIQMTQSPSSLSASVGDRVTITCRASQSISSYLNWYQQKPGKAPKLLIYDASYHEFGVPSRFSGSGSGTDFTLTISSLQPEDFATYYCQQSYSTPWTFGQGTKVEIK
notes: Tested as Fab fragment

Legend:
[1] = target: T1, OneArmed-huPD-L1_ECD_Fc_LALAPG (P1AF6937) (human, UniProt Q9NZQ7 18-238); assay: SPR, Dutaflip Fab fragment without IFN-α2 fusion, analyte P1AF6937
T1 construct: range 18-238; also called huPD-L1-Fc; huPD-L1(ECD)-huFc

[2] = target: T2, OneArmed-cyPD-L1_ECD_Fc_LALAPG_avi_his (P1AF6938) (cynomolgus); assay: SPR, Fab fragment, as in Example 2 a)
T2 construct: also called cynomolgus PD-L1-Fc; cynoPD-L1 (ECD)-huFc

[3] = target: T1, OneArmed-huPD-L1_ECD_Fc_LALAPG …; assay: SPR, Fab fragment, as in Example 2 a)

Binder | Kd [1] [nM] | Kd [2] [nM] | koff [2] [s⁻¹] | kon [2] [M⁻¹ s⁻¹] | Kd [3] [nM] | koff [3] [s⁻¹] | kon [3] [M⁻¹ s⁻¹]
B1 | 37 | – | – | – | – | – | –
B2 | 6 | – | – | – | – | – | –
B3 | – | 0.9 | 0.00015 | 160000 | 0.6 | 0.00012 | 200000
